Values belong to the sequence of their own block, whether it stands above or below them.
Tests used:
HLA-A*03:01 [1] = assay: IEDB peptide-MHC binding, purified MHC/direct/fluorescence; filed as Kd, often an IC50 or EC50 that approximates it; ≥ and ≤ were set here for values at or beyond the usual limits of such assays; settings: source organism: Plum pox virus
HLA-A*31:01 [2] = assay: as above
HLA-A*02:01 = assay: IEDB peptide-MHC binding, purified MHC/competitive/fluorescence; ≥ and ≤ were set here for values at or beyond the usual limits of such assays
HLA-B*08:01 = assay: IEDB peptide-MHC binding, purified MHC/competitive/radioactivity; filed as Kd, often an IC50 or EC50 that approximates it; ≥ and ≤ were set here for values at or beyond the usual limits of such assays
HLA-B*40:01 [3] = assay: as above
HLA-B*44:02 = assay: as above
HLA-A*24:02 = assay: as above
HLA-A*26:01 = assay: as above
HLA-A*30:02 = assay: as above
HLA-A*01:01 = assay: as above
HLA-A*23:01 = assay: as above
HLA-A*29:02 = assay: as above
HLA-B*07:02 = assay: IEDB peptide-MHC binding, purified MHC/direct/fluorescence; filed as Kd, often an IC50 or EC50 that approximates it; ≥ and ≤ were set here for values at or beyond the usual limits of such assays
HLA-B*44:03 = assay: IEDB peptide-MHC binding, purified MHC/competitive/radioactivity; filed as Kd, often an IC50 or EC50 that approximates it; ≥ and ≤ were set here for values at or beyond the usual limits of such assays
HLA-A*69:01 = assay: IEDB peptide-MHC binding, purified MHC/direct/fluorescence; filed as Kd, often an IC50 or EC50 that approximates it; ≥ and ≤ were set here for values at or beyond the usual limits of such assays; settings: source organism: Haemophilus influenzae
HLA-B*40:01 [4] = assay: as above; settings: source organism: Haemophilus influenzae
HLA-A*03:01 [5] = assay: IEDB peptide-MHC binding, purified MHC/competitive/radioactivity; filed as Kd, often an IC50 or EC50 that approximates it; ≥ and ≤ were set here for values at or beyond the usual limits of such assays; settings: source organism: Vaccinia virus WR
HLA-A*11:01 = assay: as above; settings: source organism: Vaccinia virus WR
HLA-A*31:01 [6] = assay: as above; settings: source organism: Vaccinia virus WR
HLA-A*33:01 = assay: as above; settings: source organism: Vaccinia virus WR
HLA-A*68:01 = assay: as above; settings: source organism: Vaccinia virus WR
HLA-B*57:01 = assay: IEDB peptide-MHC binding, purified MHC/direct/fluorescence; filed as Kd, often an IC50 or EC50 that approximates it; ≥ and ≤ were set here for values at or beyond the usual limits of such assays; settings: source organism: Bacillus anthracis str. A0488
HLA-B*58:01 = assay: as above; settings: source organism: Bacillus anthracis str. A0488
[7] = source organism: Zaire ebolavirus
[8] = source organism: Vaccinia virus WR
[9] = source organism: Dengue virus 2 Jamaica/1409/1983
[10] = source organism: Dengue virus 3 Singapore/8120/1995
[11] = source organism: Dengue virus 4 Philippines/H241/1956
[12] = source organism: Mammarenavirus guanaritoense
[13] = source organism: SARS coronavirus Tor2
[14] = source organism: Dengue virus 1 Brazil/97-11/1997
[15] = source organism: Dengue virus 3 Martinique/1243/1999
[16] = source organism: Mammarenavirus juninense
[17] = source organism: Vaccinia virus Copenhagen

Sequence: GTMHQEIFR
Kd (HLA-A*03:01 [1]): 83.9 nM | Kd (HLA-A*31:01 [2]; source organism: Plum pox virus): 41.9 nM

Sequence: TLAGVNVGE
IC50 (HLA-A*02:01; [7]): ≥ 211000 nM

Sequence: IRFPRFTRI
Kd (HLA-B*08:01; [8]): 1600 nM

Sequence: SELPETLETL
Kd (HLA-B*40:01 [3]; [9]): 7.2 nM

Sequence: ILNRRRRTA
Kd (HLA-B*08:01; [9]): 147 nM

Sequence: NEMVLLQME
Kd (HLA-B*44:02; [9]): 907 nM

Sequence: AVVIVGLHGV
IC50 (HLA-A*02:01; source organism: Human alphaherpesvirus 1 strain 17): ≥ 50000 nM

Sequence: IMDLEKRHVL
Kd (HLA-B*08:01; [9]): 42.1 nM

Sequence: WIMKIGIGVL
Kd (HLA-B*08:01; [10]): 287 nM

Sequence: VGRQEKGKSL
Kd (HLA-B*08:01; [9]): 3150 nM

Sequence: SFTVVSNGA
IC50 (HLA-A*02:01; [7]): ≥ 372000 nM

Sequence: GETAWDFGSV
Kd (HLA-B*40:01 [3]; [11]): 388 nM

Sequence: KRHSTKYHL
Kd (HLA-A*24:02; [12]): ≥ 60300 nM | Kd (HLA-A*26:01; [12]): ≥ 77900 nM | Kd (HLA-A*30:02; [12]): ≥ 33300 nM

Sequence: EYKLQQGTF
Kd (HLA-A*01:01; [13]): ≥ 78100 nM | Kd (HLA-A*23:01; [13]): ≥ 35100 nM | Kd (HLA-A*24:02; [13]): 11300 nM | Kd (HLA-A*26:01; [13]): ≥ 77900 nM | Kd (HLA-A*29:02; [13]): ≥ 31600 nM | Kd (HLA-A*30:02; [13]): ≥ 78900 nM

Sequence: RPEAAAGQL
Kd (HLA-B*07:02; source organism: Mycobacterium tuberculosis variant bovis BCG str. Pasteur 1173P2): 179 nM

Sequence: LNGRKRSTI
Kd (HLA-B*08:01; source organism: Dengue virus 4 Dominica/814669/1981): 135 nM

Sequence: VEDYGFGMF
Kd (HLA-B*40:01 [3]; [11]): 965 nM

Sequence: LKDGPERVIL
Kd (HLA-B*08:01; [14]): 2540 nM

Sequence: EEEMFKKRNL
Kd (HLA-B*40:01 [3]; [15]): ≥ 64300 nM | Kd (HLA-B*44:02; [15]): 90 nM | Kd (HLA-B*44:03; [15]): 815 nM

Sequence: ENMLRSMPV
Kd (HLA-B*08:01; [8]): 0.213 nM

Sequence: DWVVERVRWL
Kd (HLA-A*23:01; [16]): ≥ 51900 nM | Kd (HLA-A*24:02; [16]): ≥ 48700 nM | Kd (HLA-A*29:02; [16]): ≥ 71400 nM

Kd (HLA-A*24:02; source organism: Homo sapiens): 149 nM
Sequence: VAELVHFLL

Sequence: SENEVKLTIM
Kd (HLA-B*40:01 [3]; [9]): 974 nM | Kd (HLA-B*44:02; [9]): 23.7 nM | Kd (HLA-B*44:03; [9]): 377 nM

Sequence: VYRGTTTYKL
Kd (HLA-A*01:01; [13]): 3910 nM | Kd (HLA-A*23:01; [13]): 101 nM | Kd (HLA-A*24:02; [13]): 136 nM | Kd (HLA-A*26:01; [13]): 1000 nM | Kd (HLA-A*29:02; [13]): 216 nM | Kd (HLA-A*30:02; [13]): 6880 nM

Sequence: FGDSEEPVTY
Kd (HLA-A*01:01; [17]): 834 nM | Kd (HLA-A*23:01; [17]): 1490 nM | Kd (HLA-A*24:02; [17]): ≥ 70300 nM | Kd (HLA-A*26:01; [17]): ≥ 69700 nM | Kd (HLA-A*29:02; [17]): 13000 nM | Kd (HLA-A*30:02; [17]): 13100 nM

Sequence: VNKFKFGAA
Kd (HLA-B*08:01; [8]): 158 nM

Sequence: EEHSSTWHY
Kd (HLA-B*44:02; [10]): 17.6 nM | Kd (HLA-B*44:03; [10]): 41 nM

Kd (HLA-A*31:01 [2]; source organism: Haemophilus influenzae): 924 nM | Kd (HLA-A*69:01): 337 nM | Kd (HLA-B*40:01 [4]): 227 nM
Sequence: RFEAYGWQV

Sequence: REAVEDSRFW
Kd (HLA-B*44:02; [9]): 78.7 nM | Kd (HLA-B*44:03; [9]): 127 nM

Sequence: NLTYVQLES
IC50 (HLA-A*02:01; [7]): 11000 nM

Sequence: NPVPVGNIY
Kd (HLA-B*07:02; source organism: Human immunodeficiency virus type 2 (ISOLATE D205,7)): ≥ 40300 nM

Sequence: SKRMRVDII
Kd (HLA-B*08:01; [8]): 8230 nM

Sequence: RLSFKELLVY
Kd (HLA-A*01:01; [13]): 239 nM | Kd (HLA-A*23:01; [13]): 14700 nM | Kd (HLA-A*24:02; [13]): 15700 nM | Kd (HLA-A*26:01; [13]): 10100 nM | Kd (HLA-A*29:02; [13]): 86.2 nM | Kd (HLA-A*30:02; [13]): 226 nM

Sequence: KERMVTFKV
Kd (HLA-B*40:01 [3]; [11]): 5760 nM

Sequence: IYRILQRGLL
Kd (HLA-B*08:01; [14]): 2570 nM

Sequence: IIVNNQESNK
Kd (HLA-A*03:01 [5]): 1130 nM | Kd (HLA-A*11:01): 4400 nM | Kd (HLA-A*29:02; [8]): ≥ 68200 nM | Kd (HLA-A*31:01 [6]): ≥ 29900 nM | Kd (HLA-A*33:01): ≥ 36200 nM | Kd (HLA-A*68:01): 3230 nM

Sequence: YCNYTKFWY
Kd (HLA-A*01:01; [16]): 18500 nM | Kd (HLA-A*23:01; [16]): ≥ 22200 nM | Kd (HLA-A*24:02; [16]): ≥ 77500 nM | Kd (HLA-A*26:01; [16]): ≥ 77900 nM | Kd (HLA-A*29:02; [16]): 2000 nM | Kd (HLA-A*30:02; [16]): 674 nM

Sequence: IARQYEQEM
Kd (HLA-B*57:01): 515 nM | Kd (HLA-B*58:01): 15000 nM
